{"source": "paper PMC7116727", "molecular_target": "S2 component of the furin-cleaved SARS-CoV-2 spike ectodomain ('2P' mutant) (SARS-CoV-2) (UniProt P0DTC2)", "test": "cryo-EM structure", "data": [{"substance": "S2 component of the furin-cleaved SARS-CoV-2 spike ectodomain ('2P' mutant) (from UniProt P0DTC2) (domain or fragment)", "values": [{"measurement": "stoichiometry N", "result": 3}]}]}
